Consider 98 sequences from the supplement of paper PMC6755084.

The data set has as its system F1*sub RNA substrate (template-directed ligation). Put plainly: fraction ligated after 30 min (ligated reads / total reads); higher = more ligase activity; sequences stand for … in GAGACCGCAACTGAAAAGTTGT…AGTTCTGCACGTAGAAGCAAAAGGC
Particulars: 42 °C. The method in brief: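 Ribozyme variants were transcribed with T7 from PCR-amplified oligo-pool templates and gel-purified. Ligated and unligated bands, separated on gel, were reverse transcribed with barcoded primers and sequenced on a MiSeq, with core bases filtered at quality ≥20. Fraction ligated per variant was computed as ligated reads divided by total reads.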
The sequence TATACTTGTCGTAAGAACTTGGATGGGTTGA [3d904] registered a fraction ligated of 0.717. As for “TATCACTTTCGTAAGAACTTTGGATGGGTTG [3d1546]”, the figure is 0.868; as for TCACTTGTCGTAAGACACTTTGGAGGGTTGA [3d20], 0.333. Under “TATCACTTGTCGAAGACCTTTGATGGGTTGA [3d1944]” stands 0.76; under ACACTTTCGTAAGACACTTTGGATGGGTTGA [3d28], 0.0846. In turn, “TATCACTTGTCGAAGCATTTGGATGGGTTGA [3d1927]” yielded a fraction ligated of 0.811. As for TATACTTTCGAAGACACTTTGGATGGGTTGA [3d798], the figure is 0.451; as for “TATCACTTGCGAAGACATTTGGATGGGTTGA [3d1618]”, 0.814; as for “TATCACTTGTCGTAAGACACTTGGTGGTTGA [3d2245]”, 0.012. For the sequence “TATCCTTGTCGTAAGAACTTGGATGGGTTGA [3d1076]”, the fraction ligated amounted to 0.591. For “TATCACTTTCGTAAGACATTTGGATGGGTTA [3d1559]”, the fraction ligated is 0.778. Under “TATCACTTGTCGAAACACTTTGGAGGGTTGA [3d1921]” stands 0.0563; under “TATCACTTGTCTAAGACATTTGGATGGGTTG [3d1877]”, 0.824; under “TATCCTTGTCGTAGACCTTTGGATGGGTTGA [3d1046]”, 0.773.

On to TTCACTTGTCGTAGCACTTTGGATGGGTTGA [3d431], for which the fraction ligated is 0.735.

Sequence “TATCATTGTCGTAAGACCTTTGGATGGGTTG [3d1261]” showed a fraction ligated of 0.778. As for ATCACTTGTGTAAGACACTTTGATGGGTTGA [3d165], the figure is 0.453. Under TATACTTTCTAAGACACTTTGGATGGGTTGA [3d797] stands 0.562; under “TATCATTGCGTAGACACTTTGGATGGGTTGA [3d1159]”, 0.823; under TATACTTGTCGTAAGACTTTGGATGGGTTGA [3d893], 0.758.

Sequence ATCACTTGCGTAAGACACTTTGGATGGGTTA [3d154] returned a fraction ligated of 0.567. “TATCACTTCGTAAACACTTTGGATGGGTTGA [3d1315]” gave a fraction ligated of 0.792. As for “TATCACTTGTCGTAAGAATTGGATGGGTTGA [3d2152]”, the figure is 0.785; as for “TATCACTTGTCGAAGACACTTTGGGGGTTGA [3d1970]”, 0.133; as for TCACTTGTCGTAAGACACTTTGGATGGGTTA [3d22], 0.427. For TTCACTTGTCGTAAGACTTTGGATGGGTTGA [3d452], the fraction ligated was 0.752. In turn, “TATCACTGCGAAGACACTTTGGATGGGTTGA [3d1329]” showed a fraction ligated of 0.831. As for TACACTTTCGTAAGACACTTTGGAGGGTTGA [3d597], the figure is 0.0439; as for “TATCATTGCGTAAGACACTTTGGTGGGTTGA [3d1167]”, 0.0667.

TTCACTTGTCGTAAGAACTTTGGATGGGTTGA [2d37] gave a fraction ligated of 0.748.

The sequence TTCACTTGTGAAGACACTTTGGATGGGTTGA [3d388] returned a fraction ligated of 0.767. Under “TATCATTGTCGTAAGACACTGGATGGGTTGA [3d1269]” stands 0.783; under “TATCACTTTCTAAGACCTTTGGATGGGTTGA [3d1484]”, 0.783; under “TATCACTTGCGTAAGACTTTGGATGGGTTGA [3d1649]”, 0.849.

The sequence “TATCCTTGTCTAAGACACTTTGGAGGGTTGA [3d1025]” gave a fraction ligated of 0.0172. As for “TATCACTTGTCGTAAGACACTTGATGGTTGA [3d2241]”, the figure is 0.0196.

Sequence “TATCATTGTCGTAAGACACTTGGAGGGTTGA [3d1272]” gave a fraction ligated of 0.183.

Take ATCACTTGTCTAAGACCTTTGGATGGGTTGA [3d176]: the fraction ligated was found to be 0.717. TATACTTGTCTAAGCACTTTGGATGGGTTGA [3d846] returned a fraction ligated of 0.779.

Turning to “TATCACTTGTCGTAGACACTTTGGAGGGTTA [3d2053]”, the fraction ligated amounted to 0.0985.

“TATCACGTCGTAGACACTTTGGATGGGTTGA [3d1298]” showed a fraction ligated of 0.801. As for TACACTTGTCGTAAGACACTTTGGATGGTTA [3d734], the figure is 0.405. As for “TATCACTTGTGTAAGAACTTTGGATGGTTGA [3d1769]”, the figure is 0.0688. In the case of “TATCACTTGTGTAAGACACTTTGATGGGTTA [3d1797]”, the fraction ligated is 0.0515. In turn, “TATCACTTGTCGTAAGACATTGGATGGGTTGA [2d269]” came in with a fraction ligated of 0.815.

TACACTTTCGTAAGACACTTTGGATGGGTTG [3d600] showed a fraction ligated of 0.0259. Under “TATCACTTTCGTAAGACACTTTGGTGGTTGA [3d1575]” stands 0.025. As for TTCACTTGTCGTAAGCACTTGGATGGGTTGA [3d455], the figure is 0.231; as for “TATCACTTGTCGAAGACACTTTGAGGGTTGA [3d1966]”, 0.0437. Under TATACTTGTCGTAGACACTTTGGATGGGTTGA [2d77] stands 0.67. In the case of “TATCACTGCGTAAGAACTTTGGATGGGTTGA [3d1333]”, the fraction ligated amounted to 0.842.

As for TATATTGTCGTAAGACACTTGGATGGGTTGA [3d770], the fraction ligated amounted to 0.641. Under TACCTTGTCGTAAACACTTTGGATGGGTTGA [3d535] stands 0.418. TATCTTGTCGTAAGACACTTTGGATGGGTTG [3d757] returned a fraction ligated of 0.779.

The sequence ATACTTGTCGTAAGCACTTTGGATGGGTTGA [3d56] displayed a fraction ligated of 0.279. As for TTCATTGTCGTAAGACCTTTGGATGGGTTGA [3d327], the figure is 0.529; as for TTCACTTGTCGTAAGACCTTTGGATGGGTTG [3d476], 0.77. “TATCACTTGTCTAAGACATTTGGATGGGTTA [3d1876]” came in with a fraction ligated of 0.793. “TATCACTTGTCTAAGACACTTTGGATGGGTT [3d1900]” gave a fraction ligated of 0.747.

On to “TATCACTTGTCGTAGCACTTTGGATGGGTTGA [2d223]”, for which the fraction ligated stood at 0.823. In turn, “TATCACTTTCGTAAGCACTTTGGATGGGTTA [3d1537]” registered a fraction ligated of 0.727. Sequence “TATCACTGTCGTAAAACTTTGGATGGGTTGA [3d1398]” had a fraction ligated of 0.842. Take TACACTTTCGTAAGACACTTGGATGGGTTGA [3d594]: the fraction ligated turned out to be 0.0252. “TATCACTGTCTAAGACACTTTGGATGGGTTG [3d1371]” showed a fraction ligated of 0.8. As for ATACTTGTCGTAAGACACTTTGGATGGTTGA [3d64], the figure is 0.21.

The sequence ATCACTTGTCGTAAGACACTTTGGATGGGTTA [2d23] displayed a fraction ligated of 0.747.

In turn, TTCACTTGCGTAAGAACTTTGGATGGGTTGA [3d377] returned a fraction ligated of 0.52.

As to “TATCACTTGTCGTAAACACTTTGGAGGGTTG [3d2100]”, the fraction ligated was 0.0384.

TTCACTTGTCTAAGACACTTTGGATGGGTTG [3d415] came in with a fraction ligated of 0.752. Sequence “TATCACTTGTCGTAAAACTTTGGTGGGTTGA [3d2062]” came in with a fraction ligated of 0.0841. Sequence “TATCACTTGTCGTAAACCTTTGGATGGTTGA [3d2071]” had a fraction ligated of 0.256. “TATCACTTGTCGTAAGACCTTTGGTGGGTTG [3d2199]” registered a fraction ligated of 0.0351. In the case of “TATCACTTGTCGTAAGCACTTTGGAGGGTTA [3d2146]”, the fraction ligated turned out to be 0.134.

As to TTCACTTGTCTAAGACACTTTGGAGGGTTGA [3d412], the fraction ligated worked out at 0.154.

TACCTTGTCGAAGACACTTTGGATGGGTTGA [3d533] came in with a fraction ligated of 0.676.

“TATCACTTGTCGAAGACACTTGGATGGTTGA [3d1961]” yielded a fraction ligated of 0.106.

As for “TATCACTTTCGTAAACACTTTGGATGGGTTA [3d1527]”, the fraction ligated came to 0.575. As for ATCACTTGTCGAAACACTTTGGATGGGTTGA [3d186], the figure is 0.784. “TATCACTTGTCGTAAACACTTGGTGGGTTGA [3d2083]” registered a fraction ligated of 0.119. As for “TATCACTTGTCGTAAGCCTTTGATGGGTTGA [3d2115]”, the figure is 0.718; as for TACCTTGTCGTAAGACACTTTGGATGGGTTGA [2d48], 0.772; as for “TATCCTTGTCGTAAGACACTTTGGATGGTTGA [2d106]”, 0.0489. TATCCTGTCGTAAGACATTTGGATGGGTTGA [3d960] had a fraction ligated of 0.766. Turning to “TATCCTTGTCGTAAGAACTTTGGATGGGTTG [3d1082]”, the fraction ligated was 0.779. As for TACACTTGCGTAAGCACTTTGGATGGGTTGA [3d606], the figure is 0.764. Under ATCACTGCGTAAGACACTTTGGATGGGTTGA [3d107] stands 0.818; under TCACTTGTGTAAGACACTTTGGATGGGTTGA [3d8], 0.662; under TACACTTGTCGTAAGACACTTTGGATGGGTTA [2d67], 0.274.

“TATCACTTGCGTAAACACTTGGATGGGTTGA [3d1642]” yielded a fraction ligated of 0.802. Under TACACTTGCGTAAGACATTTGGATGGGTTGA [3d609] stands 0.422; under “TATCACTTGTGTAGACACTTTGATGGGTTGA [3d1738]”, 0.824. “TATCACTTGTCGTAGACACTTGGATGGGTTG [3d2041]”: the fraction ligated was determined as 0.782.

Regarding “TATCACTTGTCGTAAACACTTTGGTGGGTTGA [2d239]”, the fraction ligated worked out at 0.0914. As for “TATCACTTGTGTAAACACTTTGGATGGGTTG [3d1753]”, the figure is 0.859.

Take “TATCACGTCGTAAGACACTTTGGAGGGTTGA [3d1307]”: the fraction ligated came to 0.104. Under TATACTTGTCGTAAACACTTTGGAGGGTTGA [3d889] stands 0.0111. As for “TATCACTTGTCGTAAGACACTTTGATGGTTG [3d2268]”, the figure is 0.0103; as for “TATCACTTTCGTAAGACACTTTGATGGTTGA [3d1571]”, 0.0696.
